Tests used:
OsDREB1C-m1 (A10_) = OsDREB1C-m1 (A10_) (Oryza sativa, UniProt Q9LWV3 1-214, del43-43); test: EMSA
OsDREB1C (WT) [1] = biological target: T1, OsDREB1C (WT) (Oryza sativa, UniProt Q9LWV3 1-214); test: EMSA
AtCBF1 [2] = biological target: T2, AtCBF1 (Arabidopsis thaliana, UniProt P93835 1-213); test: competition
OsDREB1C-m2 (R12K) = OsDREB1C-m2 (R12K) (Oryza sativa, UniProt Q9LWV3 1-214, R45K); test: competition
OsDREB1C (WT) [3] = biological target: T1, OsDREB1C (WT); test: competition
AtCBF1 [4] = biological target: T2, AtCBF1; test: EMSA

T2 sequence (P93835 whole entry): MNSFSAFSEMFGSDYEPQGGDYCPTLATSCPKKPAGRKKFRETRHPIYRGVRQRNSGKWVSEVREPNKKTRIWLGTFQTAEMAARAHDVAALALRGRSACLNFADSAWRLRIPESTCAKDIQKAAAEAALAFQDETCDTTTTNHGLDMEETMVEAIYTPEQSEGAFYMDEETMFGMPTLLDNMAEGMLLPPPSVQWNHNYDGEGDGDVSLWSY

Binder	binding result (AtCBF1 [2])	binding result (OsDREB1C-m2 (R12K))	further results
OsNR2 GCCGAC probe, 29 bp (dsDNA) DNA 1: CAGGAGCTCGATGTAGCCGACCTCGTCGA DNA 2: TCGACGAGGTCGGCTACATCGAGCTCCTG	–	–	binding result (OsDREB1C-m1 (A10_)): binds; binding result (OsDREB1C (WT) [1]): binds
ACCGAC competitor, 29 bp (dsDNA) DNA 1: CAGGAGCTCGATGTAACCGACCTCGTCGA DNA 2: TCGACGAGGTCGGTTACATCGAGCTCCTG	binds	binds	–
OsNR2 GCCGAC competitor, 29 bp (dsDNA) DNA 1: CAGGAGCTCGATGTAGCCGACCTCGTCGA DNA 2: TCGACGAGGTCGGCTACATCGAGCTCCTG	binds	binds	binding result (OsDREB1C (WT) [3]): binds
ACCGAC probe, 29 bp (dsDNA) DNA 1: CAGGAGCTCGATGTAACCGACCTCGTCGA DNA 2: TCGACGAGGTCGGTTACATCGAGCTCCTG	–	–	binding result (AtCBF1 [4]): binds
